Results from publication PMC8651678 (Nature Communications, 2021).

Experiments:
[1] = molecular target: T1, human eIF2B(αβδγε)2 decamer, eIF2Bβ Avi-tagged and biotinylated (human, UniProt Q14232;P49770;Q9UI10;Q9NR50;Q13144, biotin on the Avi tag); experiment: SPR; details: both partners purified
T1 construct: also called decameric eIF2B; copies: 2 + 2 + 2 + 2 + 2

[2] = molecular target: T2, human eIF2B(αβδγε)2 decamer (no capture tag) (human, UniProt Q14232;P49770;Q9UI10;Q9NR50;Q13144); experiment: fluorescence polarisation; details: both partners purified
T2 construct: also called decameric eIF2B; eIF2B(αβγδε)2; copies: 2 + 2 + 2 + 2 + 2

B1: Sandfly Fever Sicilian virus (SFSV) NSs protein with a C-terminal 6xHIS tag (natural protein)
chain: MINNNMMNSQYMFDYPAINIDVRCHRLLSSVSYVAYNKFHTHDVSTYEHCEIPLEKLRLGFGRRNSLADFYSLGELPASWGPACYFSSVKPMMYTFQGMASDLSRFDLTSFSRKGLPNVLKALSWPLGIPDCEIFSICSDRFVRGLQTRDQLMSYILRMGDSHSLDECIVQAHKKILQEARRLGLSDEHYNGYDLFREIGSLVCLRLINAEPFDTASSGEALDVRTVIRSYRASDPSTGLTEYGNSLWTPIHSHVDENDESSSDSDF
notes: not shown: 6xHIS, C-terminal, kept
For B1, the Kd [1] was 30 nM and the EC50 [2] was 72 nM.
